Results as given in patent US8012695B2, “Methods and compositions relating to promoter regulation by MUC1 and KLF proteins” (Dana-Farber Cancer Institute, Inc., priority 2007, dated 2011).
Ends that are not written are not given here.

Experiments:
KLF4 = target: T1, KLF4 (Homo sapiens, UniProt O43474); assay: GST pull-down assay with 35S-labeled KLF4; type: binding; conditions: adsorbates to glutathione beads, 2 h at 4° C., autoradiography
T1 construct: host or cells: rabbit reticulocyte lysate, cell-free transcription/translation
T1 sequence (O43474 10-513 limits assumed): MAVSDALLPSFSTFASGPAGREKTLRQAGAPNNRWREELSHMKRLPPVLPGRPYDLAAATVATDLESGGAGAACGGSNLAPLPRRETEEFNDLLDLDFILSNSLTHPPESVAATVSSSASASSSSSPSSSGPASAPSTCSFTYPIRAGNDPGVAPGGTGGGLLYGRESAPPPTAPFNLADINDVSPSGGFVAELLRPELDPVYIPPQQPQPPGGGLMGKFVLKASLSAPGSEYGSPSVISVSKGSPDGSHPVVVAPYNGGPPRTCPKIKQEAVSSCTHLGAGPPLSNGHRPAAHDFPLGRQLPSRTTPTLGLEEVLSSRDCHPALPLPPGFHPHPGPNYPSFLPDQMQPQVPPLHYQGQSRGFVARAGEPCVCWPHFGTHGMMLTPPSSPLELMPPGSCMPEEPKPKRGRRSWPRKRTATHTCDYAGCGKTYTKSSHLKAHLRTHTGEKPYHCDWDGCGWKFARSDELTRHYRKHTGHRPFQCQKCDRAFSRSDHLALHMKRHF
Method: FIG. 3D is a pair of photographs of (a) an autoradiogram and (b) a Coomassie blue stained polyacrylamide gel. GST, GST-MUC1-CD(1-72), GST-MUC1-CD(47-72), or GST-MUC1-CD(1-46) were bound to glutathione-conjugated agarose beads and incubated with [^35S]-labeled KLF4 protein. The beads were washed to remove unbound KLF4 protein. The remaining adsorbates were analyzed by SDS-PAGE and autoradiography (top photograph). Input KLF4 protein is shown in the first lane of the top photograph. Input of the GST and GST-MUC1-CD fusion proteins was assessed by Coomassie blue staining. The molecular weights of the proteins (expressed in kilodaltons (kDa)) are indicated at the left of each of the photographs.
GST pull-down assays. GST and GST fusion proteins were purified by binding to glutathione-agarose beads (Sigma). ^35S-labeled KLF4, prepared in rabbit reticulocyte lysate transcription/translation (TNT) reactions (Promega Corporation), was incubated with GST or the GST fusion proteins for 2 h at 4° C. After washing, the adsorbed proteins were resolved by SDS-PAGE and analyzed by autoradiography.
To determine if MUC1-C occupies the PE21 region with KLF4, Re-ChIP assays were performed using anti-MUC1-C and anti-KLF4 antibodies. […] Moreover, DNA damage had little if any effect on this interaction (FIG. 7B). […]

[1] = system: ZR-75-1 breast cancer cells; assay: Immunoblot analysis of p53 in ZR-75-1 cells; type: cell-based, human; conditions: ZR-75-1/MUC1siRNA cells transfected with pCMV-MUC1-CD, 24 hours
Method: Cell culture. […] Human ZR-75-1 breast cancer cells and those stably infected with a control siRNA (ZR-75-1/CsiRNA) or one expressing a MUC1siRNA (ZR-75-1/MUC1siRNA) (Wei et al. (2006) Mol. Cell. 21: 295-305) were cultured in RPMI 1640 medium supplemented with 10% HI-FBS, 100 μg/ml streptomycin, 100 units/ml penicillin, and 2 mM L-glutamine.
Immunoblotting. […] Immunoblot analysis was performed with anti-p53 (Ab-2, Ab-6; Oncogene Research Products), anti-MUC1-C (Ab-5; Neomarkers, Freemont, Calif.), anti-KLF4 (H-180; Santa Cruz Biotechnology), anti-β-actin (Sigma), anti-IκBα (Santa Cruz Biotechnology), or anti-PCNA (F-2; Santa Cruz Biotechnology) antibodies. Whole cell lysates were also, prior to analysis by immunoblotting, first subjected to immunoprecipitation with an anti-KLF4 antibody. Immunocomplexes were detected with enhanced chemiluminescence (ECL; PerkinElmer Life Sciences).

p53 promoter [2] = assay: p53 promoter-Luc reporter assay in ZR-75-1 cells; type: cell-based, human
Method: FIG. 4A is a bar graph (left) and a series of photographs of western blots (right) depicting the suppression of p53 gene transcription by MUC1. Bar graph, Left: ZR-75-1/MUC1siRNA cells were transfected with the −2400-p53-Luc reporter or the −320-p53-Luc reporter construct. The X-axis indicates the amount of MUC1-CD DNA (and a control LacZ expression plasmid) in μg (“μg MUC1-CD) also transfected into each cell. the indicated amounts of MUC1-CD. At 40 h after transfection, lysates were prepared from the transfected cells and assayed for luciferase activity. The Y-axis represents the relative luciferase activity expressed as fold activation (mean±SD of 3 separate experiments) compared to that obtained with empty vector-transfected cells (assigned a value of 1). Western blots, right: ZR-75-1/MUC1siRNA cells were transfected with the indicated amounts (in μg) of pCMV or pCMV-MUC1-CD vectors. At 24 hours after transfection, lysates from the indicated ZR-75-1/MUC1siRNA cells were immunoblotted (“IB”) with antibodies specific for p53, MUC1-C, or β-actin (as indicated below each photograph). […]
FIG. 4B is a pair of bar graphs. […] The Y-axis represents the relative luciferase activity expressed as the fold activation (mean±SD of 3 separate experiments) compared to that obtained with empty vector-transfected cells (assigned a value of 1). […]

p53 promoter [3] = assay: p53 promoter-Luc reporter assay in MCF-7 cells; type: cell-based, human; conditions: −2400-p53-Luc, 0.5 μg MUC1-CD, increasing amounts of KLF4
Method: FIG. 4B is a pair of bar graphs. MCF-7 (left bar graph) or ZR-75-1 (right bar graph) cells were transfected with the −2400-p53-Luc reporter, the indicated amounts (0, 0.5, or 1 μg) of KLF4, 0.5 μg MUC1-CD and an internal control LacZ expression plasmid (pCMV-LacZ). At 40 hours after transfection, the cells were assayed for luciferase activity (as described above). The Y-axis represents the relative luciferase activity expressed as the fold activation (mean±SD of 3 separate experiments) compared to that obtained with empty vector-transfected cells (assigned a value of 1).
Transfection and reporter assays. Transfections were performed in 60 mm dishes using Fugene-6 (Roche Applied Science) or, for the luciferase assays, in 24 well plates using the calcium phosphate method (Invitrogen). Cells were transfected with the −2400-p53-Luc reporter, −2400-PE21-MUT-Luc reporter, −320-p53-Luc reporter, −320-PE21-MUT-Luc reporter (Rowland et al. (2005) Nat. Cell Biol. 7: 1074-1082) and an internal control LacZ expression plasmid (pCMV-LacZ) (Wei et al. (2001) J. Biol. Chem. 276: 16107-16112). Luciferase assays were performed with the Luciferase Assay System (Promega Corporation, Madison, Wis.) at 40 hours after transfection. Luciferase activity was normalized to that obtained for LacZ and presented as relative luciferase activity. […]

Molecule	binding of [35S]-labeled KLF4 to GST fusion protein (KLF4)	p53 levels (immunoblot) [1]	p53 gene transcription (luciferase activity) (p53 promoter [2]; ZR-75-1/MUC1siRNA cells, −2400-p53-Luc or −320-p53-Luc, 40 h after transfection)	effect on KLF4-mediated suppression of p53 transcription (luciferase) (p53 promoter [2]; ZR-75-1 cells, −2400-p53-Luc, 0.5 μg MUC1-CD, increasing amounts of KLF4)	effect on KLF4-mediated suppression of p53 transcription (luciferase) (p53 promoter [3])
MUC1-CD(47-72): GST fusion of MUC1-CD deletion fragment, amino acids 47-72 (EKVSAGNGGSSLSYTNPAVAAASANL; also: GST fusion (side not given here); listed as Homo sapiens)	not				
MUC1-CD(1-72): GST fusion of the MUC1 cytoplasmic domain, amino acids 1-72 (SEQ ID NO:2) (protein, left off: a dimerising Fc or GST) CQCRRKNYGQLDIFPARDTYHPMSEYPTYHTHGRYVPPSSTDRSPYEKVSAGNGGSSLSYTNPAVAAASANL	binds				
MUC1-CD: MUC1 cytoplasmic domain expressed in cells by transfection of the pCMV-MUC1-CD vector (protein, listed as Homo sapiens) CQCRRKNYGQLDIFPARDTYHPMSEYPTYHTHGRYVPPSSTDRSPYEKVSAGNGGSSLSYTNPAVAAASANL		downregulates p53 levels	suppresses p53 gene transcription	potentiates KLF4-mediated suppression of p53 transcription	potentiates KLF4-mediated suppression of p53 transcription
